Test: protease stability score; higher = more stable; yeast display proteolysis, trypsin and chymotrypsin;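 note: relative to predicted unfolded state with 0 unfolded-like and 1 meaning tenfold more protease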

| Sequence | protease stability score |
| --- | --- |
| DEDEKASKEFMRLVMEVLKTGDWKSLVDLADPHARLHINGREIHGREKISEILLHELDLLGFKHMEVRVHHVEVQGEKMKFDVRHSLDVNGVERHETSMIISVKFDGQWWLKEEIVK | -0.07 |
| DEDEKASKVFVRLIKESIETGDEDTITHLADPNVRVIIGDKELHGWEELSRILHELRIHRFIVRREHVYDGRVQIDGRMDTEINGKKFITEVHVDAIKINGVWWLHLVEIR | 1.38 |
| DEDEKDAERAVKHWIKLMHTGDEELLIRLFDPHTRVEIDGVEFHGREKVTELFREFTKRVKNVRIILRRYRIVGEWIEVDTEVRVGDKSSEVHLVILKVDGKWIMHVEHYK | 1.85 |
| DEDEKDTHIWIKILEHIWDTGDEESFERLADPNVRFIQGEKELHGRERLIRFLSKYKNLTFRSEDYHIVNGRALVRITNHVNGRDLEMIIYYEKVNGQWHNKEIELR | 1.27 |
| DEDEKEAEHAAKLFSRHFRTGDEDLLREMIDPNVRIRIGDKELHGWEEFTRLMREWRFDDVHVEHIHVQGDKVIVDSILHVIINGRHIDFRSHIYIEKIDGRWVIRSFEIR | 0.651 |
| DEDEKEAHELSRTIIESWLTGDEDSLSEMMDPHTRSDVNGRISHGREEASRVWHEEMRKLGVKHYEIKRVHSRVIDGRLDLHIYSRMHINGVSRSVELIFHIEKVNGRWLIKEVRVHLL | 1.25 |
| DEDEKEATHWWRLLIKNIETGDEKSEKELLDPHARVEIGEFESVGRETVAEMWFRLMEHIRLKDSHEKDFDMQGDYMHVNGHVVGEYNGKHIKSDVRIILIVIDGRVKEVTVKIH | 0.208 |
| DEDEKEIAKTVKELVHSLRTGDWEKITRMADPHVKIHVNGRELHGWEEMRRFEEEEFKRLGFKHRDVELKDFRYQGNFAHVHGNLVVEFNGVEEEIDQHIIILKVNGRWLITEIRHH | 1.31 |
| DEDEKELERVMREFMRVWLTGNEKDFKELMDPHVRLEIGDKEHHGREEAVRILHEWRRKLGVDHSDYHHIHVQGEKMHVRGISEYNGRTVEVIIEVLIINGKLRSVHVEFR | 2.57 |
| DEDEKEQKEIADLWKKYVDTGDEKLLMELMDPTARLNIGDKRFHGRETFEHVMREIKKRYDHFELHIHHIDIQGEKIRMEGREINKFDGKTVDIRTRIRIIVVNGRITFLHHQLD | 0.622 |
| DEDEKERKRDLDKLRHFLETGNEQHLLEMLDPHARVTVGDKELIGREDFSKWMLEMRIHHDEIKRLEIYNGRIHVDYEMDVEVGDKRFRTDFRITARKVNGRWILHSMEVK | 1.54 |
| DEDEKESKEAIEISFRLWRTGNEEEIHNYADPRARLEVFINGRLIQRHGREDFSRFMNEQLKRLGIDHIHIERLEIQGEKVIVDIHITVNGQHFRLHQDARKVDGRWIIHDVKINLL | 2.65 |
| DEDEKEYTEMVLILSRMIETGDEDSLRRLMDPHAKIHINGKEIHGRELWVHILHEHKRKLGYDNIRVNVHRIWVHGDKIRVHGHLHIDGKEHEVHVHIEKINGRWVLRHDEIR | 1.68 |
| DEDEKFTKEVIELWIRALRTGDEHTLMRLMDPHVRFEDENYSLHGREDVSRWLIKLLVHLRLEESDEHDSKIIGDKAHLHITSNHIFNGKELHMEIHIIVFKINGRWFVHEVRFR | 1.72 |
| DEDEKHARDLMKLWQLAMFTGDEDTLKRLVDPDMRLKYGEFELHGREDLLRFFKHWRLESRLETTDVRFQGDKLVAYGVRRHVSHIDGVEVEETRRVITYILKVDGQWYVKSVEIR | 1.67 |
| DEDEKHMEEWLRLLKHALVTGDFEMILRNLDPHYRNDINGREFHGWEFFDKLMKEIRVKDSHLTHIEIYDGKAISETNVDLHVDGKDVLLDTRVVIDKYNGRWIIRHVSID | 1.23 |
| DEDEKIARDQLEHFFHSVQTGNEDELRRLLDPNTYIDINGRTYHGREEVVKWMVHWFEHARLRRVHIRHSRSIGDKIILDTKMNVDINGVERHLDVNVIYLKVDGKWINHSEIVK | 1.56 |
| DEDEKIIEDIIRKIWLAFMTGDEELYERLADPEDRLEVGEKTAVGREDVRRALHEWIRKLGIKHSHTRHMDFQGDKLIIHGEMLFNGRTFDLQLEFNVVNGRLKSMHVRIR | 1.58 |
| DEDEKIIQQFLREHTETNDTGDENTFKKQLDPHARTIFNGREYHGREDAYRILKELGWSRFEFHLRHVDIQGEKLHVMGLLRVDGKWLDVEIVANKINGRWVLTEFHIN | 0.417 |
| DEDEKILEKYIRIETRALKTGNEEERENLADPNTKIDVNGVKIHGMEDWSRKLLKWLRDHGATNDLKFERIKFQGEKVILDGRLHVHYNGVDLEIETIIYFTKYNGKWILKSMEVI | 0.229 |
| DEDEKIVKHMLEVLIHLILTGDWEMFQKLADPNTRLDINGREQVGWESVTKNLEHMRYHDIRSQHIEIQGNKLRNLTRVDGEVDGVRREIEVHIYSTKINGKWRLTSMQFH | 1.1 |
| DEDEKIYRWALSVFLRNFLTGDEDSLRRMMDPDVRLEVGDKEDHGMEKVVRWLTEMMRKFKGATVHLRDHKTQGNKVHLDLELNVGDKHSKLIIIIKKVDGQWIVDEFTVH | 1.52 |
| DEDEKKLEHHLRTYEEALRTGDEELNHRLADPNTKVDVDGRYIHGRDFWREIMNQWRFKEMRFREIHLQGDKANVDTEVNIDVNGREMRTESHIISIKIDGRWMIKEVRFR | 0.799 |
| DEDEKKLHKLSDELEHIWLTGDEDRWLELADPNTKVIINGKEVHGRENVAREIKKFLEDLGIDHFYIESSLAIDGRTDLNGQIHVNGRTLHVRIINHEFNGRVKRVEIHIR | 2.09 |
| DEDEKLKQEWMELFLESLRTGDWRILRKLIDPNVRLEVGDKQVIGREKVLEILKKILDEIRNQDVKLHDYTEINGRIYLDVELDLQQGDKRITLKIHTVLEKYDGRWIIRTFRIE | 1.23 |

| Sequence | protease stability score |
| --- | --- |
| DEDEKLLEKIAREFFEALKTGDEDWLTELADPHVKLDVGEWDTHGMEEIKNVLKILLHELGFKHRELHDMDIVNGVNVIDVIIRINGKERKVTIIIVTIDGRIKSIHHRVN | 2.15 |
| DEDEKLMEETLKVLIRAFDTGNWEDLKRMVDPHVRIYFNGRIFHGREFFMEYVIHLRHHARIHLELKDIEVQGDKAHADSRVLVIQGDKSWEFDLEINMTKYDGRWHIKTIKIR | 2.68 |
| DEDEKLSKFAIDNFIQLMLTGDEDSLLHLADPNARLHFNGVEIHGMEEVQERLMRERKERGVRIHSIHIEHIDIQGDWIIVHMHITQRVNGKEESIERILILLKINGRWHLHQIRLH | 1.28 |
| DEDEKLSREAFRKLLEDRETGDEHMLTRNADPRARIEVNGVELHGREHAEKFWRHYHEKFKNIRINIEHHEIQGEKVIIRGILHVNGVNLTVEIHALKINGKWLNEEFSVK | 0.129 |
| DEDEKMAREFVELWVHLLSTGNEDLEKHLVDPHVRVDINGQEIHGRNHLITFLIQIKNLTFEFRHVRITVVGDKIQVHIHGIVQVNGQWREVMIDFEAEKINGRWLQKQFHVKIH | 1.96 |
| DEDEKMLREYQRLFEEASKTGDWEHMVKLLDPDVRIRIGDKDIVGREHVLEQKKRHEDHLGIDRVNIKLVIRDERHQGEKIFLDGEFIMHFNGRTYRQHVTIILTKINGRWWIESIEIR | 1.19 |
| DEDEKMMELIIKWLQNWMLTGDFDVLHDLVDPHAKYDIGDKEMHGREAQSFLRRRFDHIEHVHLRIDDVESQGDKLIVHGQNTVVGEINGKRENFKRKVHITLEKIDGQWFEREVRVR | 1.51 |
| DEDEKMSHEASRVTLQVLITGDEEAMHRLLDPNARMDYGDKQFHGWEEVSKLTTELLTRLGVDHYHMNDERIYGEKLDLDLTIHVNGRNRKFIIIVRKINGRWLIDSMTFK | 0.576 |
| DEDEKNLEKVAHDFIRATETGNEKILHELLDPNTREEINGVDLHGRETIAKFFLDIRRNLGIKVRMRLRDWKIYNGVVELDTEVIIDVGDKRIEHKVVIYVVKYNGRWLIDKIEWI | 1.81 |
| DEDEKNMHIAMEIYRESVETGNEKMHRHLLDPHARIRFDGQEFHGWKDAHRFMHHRTHEWRDHHIQLRDRDYIDGRVHIRVIIYGEFNGVRTTRDIEIHVEKIDGRWYFTNLIFG | 0.285 |
| DEDEKRARHALTLLVHSFLTGNFEFTTELLDPHYKLHVGEKTYIGRKAIKEWIREFHERIPNIKLKDITIEHMTWVGEKVVVHSRVEGEVDGKEMFLQVEIIMEKVNGRWIVHSIHMN | 2.01 |
| DEDEKRELARRFAKNFLHGDHDNIRDLADKDVDAQVGDQTFTGTEQLMRVVKEVRDRVDHFNLTSVDVHNGQADIHARAKVNGRDYRVKIRIKIHNGRILHVQFNRR | 1.31 |
| DEDEKRSEEFLNEFFHWVHTGDEEKLVKLMDPHMRLDVNGKESVGRENAFEMWHHLRIRRMDVRDIRVELVGDKAIARSDGHIDGEIDGVRIHTRVDLLLISRKVDGVWLFKSVSINSI | 2.23 |
| DEDEKRVEHTERFLSHSRRTGDEETLETMFDPNAKNIIDGRIFIGREFVEIWVRKFKNATEDLKVEEIRVQGNKVELVGNLFVQVGDKRYELDTRIEMTKIDGRWIIHRIEFR | 1.21 |
| DEDEKRWFDRADEVRRQWETGDFERHLRLMDPHVRMEVQQGDKHEEYHGRENVMEIIRQELERVKNVKLEVTDLEIQGEKVILRLKLHVNGRDIDIYIDIVFINGRIKHIRIRIQER | 1.38 |
| DEDEKSVKYAFTMYMQNITTGDEDTLKKYLDPNVKLHFNGVNLHGMESLNKWIREIRHRVRHVHFKDVRVIDGVLIVHIEWEVREDIDGQETEDRYIVRMIVLKIDGKWILRESQIL | 1.74 |
| DEDEKTAEETLNEFIRSLLTGDEDNLKHLLDPNTRFHINGQDIHGWEVYYEMFRQWRVTHVRLEVKDFRIFNGRLDADGHLRMHGTINGKNRDTSSILHMHSVKVNGRWVLTEVRVE | 1.78 |
| DEDEKVSHHAYKLIEHLFLTGDESTWMRMADPRTRIIIGDFHLIGREEWARVLKEILDRLGFKHIQFTDREVRVYGEKVHVELHLLLIQGDKEIRVELRYISDKIDGQWRYHSVTHHIK | 0.998 |
| DEDEKVVKLVFNEIREARRTGDEEKLHELFDPHVRLEQGDKNIHGREYMITQWRELRFHDYRINITHRTTYNGVAKVDGEVSVDYRIDGVRFHDKFRIKIVILKFDGRWMIHSEHIE | 0.822 |
| DEDEKWAERFLELLIRSLVTGDEKTLEELADPRVKVEIGDKILHGRDEFERFIHEARIKSVHVRRMTDINGVMLMDGETTGNIDGVDRRRRTRIWVLKINGQWHLHSYQVV | 1.41 |
| DEDEKYEEHYVEMFLRWLQTGDEDQIERNADPNVRLDVNGRDIIGWENIIEHIRQIKNLRIQIRRVRVVDGRSIVDIRVEVNGKRHEVNLIVIIINGKLKEVKFEFR | 2.71 |
| DEDEKYLKEFLRILIEARRTGDEQLLERLMDPRVKLDNENHFSHGREDAVRHLNEHSKEARLESVEVHDVRVFNGVILWDVRIHGDIDGRRDTFNVIIIILKVNGRWRLREFIFT | 1.39 |
| DEDEKYMQEFLERLWRDLYTGDEESLTRRMDPRTRVDINGVDIHGMERVTEHIKHLVDRADHIELIIHTVNNVDGRAHNDGILVIKVNGREIRIETHFVLLKVDGRWRIQSEEYR | 0.399 |
| DEDEKYVREVFRRFVEAVITGNEEELLELIDPHVRVLINGVDNMGREKWSEWMKRYGFRVHHVRIDDEDLINGVARLDTTEDVEYDGRRDTRHSHIIINKVDGRWHIERLEFR | 1.01 |
| DEDENIARHAMELYFKLFETGDFNTLSHLLDPNVRSNINGQTLHGRELMLKQFLDLWEHMGVDHIELKDSREHLVNGRVHRHFHGHLHVNGQTYEVHVRFIMVKVNGRWRHTSESISIR | 1.1 |

Reference: the NTF2 design screens of Basanta et al. (2020)
